Laboratory results as given in the nanobody polyreactivity screen of Harvey et al. (2022).

experiment: yeast display, Sf9 membrane polyspecificity reagent, FACS + sequencing; frameworks hold sequencing errors
Summary of the method: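 Nanobodies came from a synthetic yeast display library in Saccharomyces cerevisiae BJ5465, induced with galactose for 36–48 hours and stained for 1 hour at 4 °C with 10% biotinylated, detergent-solubilized Sf9 membrane reagent. Cells were enriched on streptavidin microbeads and then FACS-sorted, with low and high (top ~1%) gates set on anti-HA fluorescence for expression and streptavidin fluorescence for reagent binding. Each polyreactivity label reflects the gate a clone came from. Genes were amplified by colony PCR, sequenced by MiSeq 2 × 250 and filtered by CDR length.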

| Sequence | polyreactivity (PSR sort gate) |
| --- | --- |
| QVQLVESGGGLVQAGGSLRLSCAASGRIFDKYTMGWYRQAPGKERELVAAISKSGSGTFYADSVKGRFTISRDNAKNTVYLQMNSLKPEDTAVYYCARVYTVGTGRSWRLDYCGQGTQVTVSS | high polyreactivity |
| QVQLVESGGGLVQAGGSLRLSCAASGSTFVGNAMGWYRQAPGKERELVATIRYSDGSTYYADSVKGRFTISRDNAKNTVYLQMNSLKPEDTAVYYCATRVKQKGPYRYSARYFYTYNYWGQGTQVTVSS | high polyreactivity |
| QVQLVESGGGLVQAGGSLRLSCAASGRTFPFYAMGWYRQAPGKERELVAAINSGGITNYADSVKGRFTISRDNAKYTVYLQMNSLKPEDTAVYYCAAKTAFYRERGYWGQGTQVTVSS | low polyreactivity |
| QVQLVESGGCLVQAGGSLRLSCAASGLIFGRNVMGWYRQAPGKERELVAAISWSGGRTYYADSVKGRFSISRDNAKNTVYLQMNSLKPEDTAVYYCNARYSRVWYGCDYWGQGTQVTVSS | high polyreactivity |
| QVQLVESGGGLVQAGGSLRLSCAASGSIFRYYAMGWYRQAPGKERELVAAISRRGSSTYYPDSVKGRFTISRDNAKNTVYLQMNSLKPEDTAVYYCATAYRGRAWGYDYWGQGTQVTVSS | high polyreactivity |
| QVQLVESGGGLVQAGGSLRLSCAASGYIFGHYAMGWYRQAPGKERELVAGITWRGGSTYYADSVKGRFTISRDNAKNTVYLQMNSLKPEDTAVYYCNAQYTQRWPYGLYYEMDYWGQGTQVTVSS | low polyreactivity |
| QVQLVESGGGLVQAGGSLRLSCAASGRTFQSYAMGWYRQEPGKERELVAAITITGGRTYYADSVKGRFTISRDNAKNTVYLQMNSLKPEDTAVYYCAAEEYSHYTLGYVYWGQGTQVTVSS | low polyreactivity |
| QVQLVESGGGLVQAGGSLRLSCAASGNIFYYNAMGWYRQAPGKERELVAAISDSGSSTHYADSVKGRFTISRDNAKNTVYLQMNSLKPEDTAVYYCGARATTNRFRYYYWGQGTQVTVSS | high polyreactivity |
| QVQLVESGGGLVQAGGSLRLSCAASGSIFTYNAMGWYRKAPGKERELVAVISWSGGSTYYADSVKGRFTISRDNAKNTVYLQMNSLKPEDTAVYYCNSDYYRPYGNKYGYWGQGTQVTVSS | high polyreactivity |
| QVQLVESGGGLVQAGGSLRLSCAASGSTFPFYDMGWYRQAPGKERELVAAIRYTGNTYYADSVKGRFTISRDNAKNTVYLQMNSLKPEDTAVYYCAADADYWAYGYWGQGTQVTVSS | low polyreactivity |
| QVQLVESGGGLVQAGGSLRLSCADSGIIFTRYAMGWYRQAPGKERELVAVITQSGGRTYYADSVKGRFTISRDNAKNTVYLQLNSLKPEDTAVYYCAAAYKPSYFTRAGDYWGQGTQVTVSS | high polyreactivity |
| QVHLVESGGGLVQAGGSLRLSCAASGITFYVYAMGWYRQAPGKERELVAAINYDSGSTYYADSVKGRFTISRDNAKNTVYLQMISLKPEDTAVYYCATDGVNPFYAYDYWGQGNQVTVSS | low polyreactivity |
| QVQLVESGGGLVQAGGSLRLSCAASGRISTRYTMGWYRQAPGKERELVAAISGNAGRTYYADSVKGRFTISRDNAKNTVYVQMNSLKPADTAVYYCARESGYRAYEIQFYYWGQGTQVTVSS | high polyreactivity |
| QVQLVESGGGLVQAGGSLRLSCAASGSTFAPNAMGWYRQAPGKERELVAVIDSGDGTTYYADSVKGRFTISRDNAKNTVYLQMNSLKPEDTAVYYCAVDESTSYYDDHEDYWGQGTQVTVSS | low polyreactivity |
| QVQLVESGGGLVQAGGSLRLSCAASRFIFYYYALGWYRQAPGKERELVAAITWSGGSTYYADSVKGRFTISRDNAKNTVYLQMNSLKPEETAEYYCAVYSTEYKLLWGGISYDYWGQGTQVTVSS | low polyreactivity |
| QVKLVESGRGLVQAGGSLRLSCAASGFTFRYYGMGWYRQAPGKERELVASITASGVSTSYADSVKGRFTISRDNAKNTVYLQMNSLKPEDTAVYYCNAVVGAWSLFDYWGQGTQVTVSS | high polyreactivity |
| QVQLVESGGGLVQAGGSLRLSCAASGRTFSIYAMGWYRQAPGKERELVASITGRGGSTYYADSVKGRFTISRDNAKNTVYLQMNSLKPEDTAVYYCAADSYKPDGYRLRNDYWGQGTQVTVSS | high polyreactivity |
| QDQLVESGGGLVQAGGSLRLSCAASGRIFDLYAMGWYRQAPGKERELVATISTRGGRTYYADSVKGRFTISRDNAKNTVYLQMKRLKPEDTAVYYWNARYLGYGWFDYWGQGTQVTVSS | low polyreactivity |
| QVQLVESGGGLVQAGGSLRLSCAASGRTFPYYDKGWYRQAPGKERELVATISWSGGTTYADSVKGRFTISRDNAKNTVYLQMNSLKPEDTAVYFCAAVSYVYRYYWGQGTQVTVSS | low polyreactivity |
| QVQLLESGGGLVQAGGSLRLSCAASGYIILRNAMGWYRQAPGKERELVAAIRRTGGSTYYADSLKGRFTISRDNAKNTVYLLLNSLKPEDTAVYSCAKRSYTGFEYWGQGTQVTVSS | low polyreactivity |
| QVQLVESGGGLVQAGGSLRLSCAASGSILRVYAMGWYRQAPGKERELVAAISWGDGRTYYADSVKGRFTISRDNAKNTDYLQMNSLKPEDTAVYYCNADVFIQYWGVLIREYDYWGQGTQVTVSS | high polyreactivity |
| LVQLVESGGGVVQAGGSLRLSSAASGSIFRNNTMGWYRQAPGKERELVAAISGRGTRTSYADSVKGRFTISRDNAKNTVYLQMNSLKPEDTAVYYCAARSWYLYYWGQGTQVTVSS | low polyreactivity |

| Sequence | polyreactivity (PSR sort gate) |
| --- | --- |
| QVQLVESGGGLVQAGGSLRLSCAASGRTFYDYTMGWYRQAPGKERELVAAISQRGGSTYYADSVKGRFTISRDNAKNTVYLQMNSLKPEDTAVYYCAARTSYSGNKYYYWGQGTQVTVSS | high polyreactivity |
| QVQLVESGGGLVQAGGSLRLSCAASGRTFRRYAMGWYRQAPGKERELVAAISSSSGTTYYADSVKGRFTISRDNEKNTDYLQMNSLKPEDTAVYYCAAYSRYTTRQYDYWGQGTQVTVSS | high polyreactivity |
| QVQLVESGGGLVQAGGTLRLSCAASGRTFNGNAMGWYRQAPGKERELVAAISGGSTSYADSVKGRFTISRDNAKNTVYLQMNSLKPEDTAVYYCAATYIRRTIFRYNSWGQGTQVTVSS | low polyreactivity |
| QVQLVESGGGLVQAGGSLRLSCAATRSTIQANTIGWYRQAPGKERALVAAISIRGANTYYADSVKGRLTISRDNAKNTFYLQMNSLKREDSAVYYCATRVGKYSLSLDYWGQGTQVTVSS | high polyreactivity |
| QVQLVESGVGLVQAGGSLRLSCAASGITFDYYAMGLYRQAPGKERELVAAIRKSGGSTYYADSVKGRFTISRDNAKNTVYLQMNSLKPEDTAVYYCAAGVRSPFRGGYYWGQGTQVTVSS | high polyreactivity |
| QVQLVESGGGLVQAGGSLRLSCAASGNTFYRYAMGWYRQAPGKERELVAAISWSGSSTYYADSVKGRFTISRDNAKNTVYLQMNSLKPEDTAVYYCAAGTYDGGYHYDYWGQGTQVTVSS | high polyreactivity |
| QVQLVESGGGLVQAGGSLRLSCAASGSIFGRYGAMGWSRQSPGKERELVAAIRTSGVSTYYADSVKGRFTISRDNAKNTVYLQMNSLKPEDTAVYYCAARAGRYRWTRFDYWGQGTQVTVSS | low polyreactivity |
| QVQLVESGGGLVQAGGSLRLSCAASGSIFGSNTMGWYRQAPGKEREFVAAISFSGGSTYDADSVKGRFTISRDNAKNTVYLQMNSLKPEDTAVYYCAARQRRVGTSFYSSRRDYWGQGTQVTVSS | high polyreactivity |
| QDQLVESAGGLVQAGGSLSLSCAATGFTFYYNAMGWYRPAAGKERELVASITRSGGRTYYADSVKGRFTISRDNAKNTVYLQMNSLKPEDTAVFYCARRYPGGYYWGQGTQVTVSS | high polyreactivity |
| QVQLVESGGGLVQAGGSLRLSCAASGLTSYFYDMGWYRQAPGKERELVAAIRASAARTYYADTVKGRFTISRDNAKNTVYLQMNSLKPEDTAVYSCAARYGYWRQFRWKYDYWGHGTQVTVSS | high polyreactivity |
| QVQLVESGGGLVQAGGSLRLSCAASGSIVDYNAMGWYRQPPGKERELVAAISSGGSTYYADSVKGRFTISRDNAKNTVYLQMNSLKPEDTAVYYCAVKFWLVIQFDYWGQGTQVTVSS | low polyreactivity |
| QVQLVESGGGLVQAGGSLRLSCAASGIIFRNYAMGWYRQAPGKERELVATIRYRGGRTYADSVKGRFTISRDNAKNTVYLQMNSLKPEDTAVYYCNARRLSVYGDYDYWGQGTQVTVSS | high polyreactivity |
| QVQLAESGGGLVQAGGSLRLSCAASGSIFWGNAMGWYRQATGKERELVAAIDWSGGSTYYADSVKGRFTISRDNGKNTVYLQMNSLKAEDTAVYYCAASGRYDYDYWGQGTQVTVSS | low polyreactivity |
| QFQLVESGGGLVQAGGILRLSCAASGRIFKYYAMGWYRQEPGKERELVAAISRGGSTYYADSVKGRFTISRDNAKNTVYLQMNSLKPEDSAVYYCNAYRHGYVAYRRYDYWGQGTQVTVSS | high polyreactivity |
| QVQLVESGGGLVQAGGSLRLSCAASGRTFAYYAMGWYRQAPGKVRELVAAISSGGRTNYADSVKGRFTISRDNAKNTVYLQMNSLKPEDTAVYYCARKAAYQIYNGQYGGFGYGYWGQGTQVTVSS | high polyreactivity |
| HVQLVESGGGFVQAAGSLRLSCAASGSIFAGYAMGWYRQAPGKERELVAAINSSGGSTYYADSVKGRFTISRDNSKNTVYLQMKSLKPEDTAVYDCNRVYKRYYIGGYDYWGQGTQVTVSS | high polyreactivity |
| QVQLVESGGGLVQAGGSLRLSCAPSGRTFVSNAMGWYRQAPGKERELVAGINWTDDSTYYADSVKGRFTISRDNAKNTVYLQMNSLKPEDTGVYFCGAYSWEFAWPRFDYWGQGTKVTVSS | low polyreactivity |
| QVQLVESGGGLVQAGGSLRLSCAASGRIFTTYAMGWYRQAPGKERELVAAITSGGGTYYADSVKGRFTISRDNAKNTVYLQMNSLKPEDTAVYYCNADYSADYYWYYYWGQGTQVTVSS | low polyreactivity |
| QVQLVESGGGLVQAGGSLRLSCAASGYIFANNAMGWYRQAPGKERELVAAISSSGGRTYYADSVKGRFTISRDNAKNTVYLQMNSLKPEDTAVYYCNKYGTALWRYYYWGQGTQVTVSS | high polyreactivity |
| QVQLVESGGGLVQAGGSLRLSCAASGSISVWYVMGWYRQAPGKERELVAAITRSGGSTFYADSVKGRFTISRDNAKNTVYLQMNSLKPEDTAVYYCAADGGVAWGYGYWGQGTQVTVSS | low polyreactivity |
| QVQLVESGGGLDQAGGSLRLSSAASGFTFVYYAMGWYRQAPGKERELVAAISWSGGTTYYADSVKGRFTISRDNAKNTVYLQMNSLKPEDTAVYYCNVYPAYIYFDYDYWGQGTQVTVSS | high polyreactivity |
